We go through 24 molecules from patent US6077680A (The University of Florida, dated 2000).

For one experiment, the target named is Kv1.3 (Mus musculus, UniProt P16390). The experiment in a line: cell-based. Format: cell-based.
The target in experiment [1] is rat brain membrane K channels (delayed rectifier, primarily Kv1.2) (rat) (UniProt P63142). Nature of the experiment: 125I-DTX displacement, rat brain membranes.
Experiment [2] concerns the target cloned Kv1.3 channel, wild type.
Experiment [3] addresses rat brain membrane K channels (delayed rectifier, primarily Kv1.2) (rat) (UniProt P63142).
For experiment [4] the target is unchanged. The source holds these as a separate data set.
Experiment [5] has the same target. This is another data set of the same source.
For experiment [6], the target named is Kv1.3 potassium channel of human T lymphocytes (human) (UniProt P22001).
Kv1.3 potassium channel of human T lymphocytes (human), sequence (P22001 whole entry): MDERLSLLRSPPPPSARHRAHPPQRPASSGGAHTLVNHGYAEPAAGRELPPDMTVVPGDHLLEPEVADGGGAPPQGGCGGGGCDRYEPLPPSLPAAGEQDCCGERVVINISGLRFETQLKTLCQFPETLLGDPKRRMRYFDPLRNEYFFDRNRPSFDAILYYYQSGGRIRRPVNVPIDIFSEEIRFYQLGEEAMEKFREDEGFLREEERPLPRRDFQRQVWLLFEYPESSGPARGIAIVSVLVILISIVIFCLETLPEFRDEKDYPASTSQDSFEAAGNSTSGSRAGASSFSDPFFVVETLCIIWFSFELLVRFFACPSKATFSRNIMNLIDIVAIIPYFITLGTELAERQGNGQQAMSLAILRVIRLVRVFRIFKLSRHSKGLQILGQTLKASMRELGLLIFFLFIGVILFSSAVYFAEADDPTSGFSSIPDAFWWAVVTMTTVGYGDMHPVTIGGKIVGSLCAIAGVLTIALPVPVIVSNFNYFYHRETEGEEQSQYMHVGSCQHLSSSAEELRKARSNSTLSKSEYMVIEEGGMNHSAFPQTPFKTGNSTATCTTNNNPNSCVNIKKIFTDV
In experiment [7] the target is rat brain membrane K channels (delayed rectifier, primarily Kv1.2) (rat) (UniProt P63142). The source holds these as a separate data set.
Experiment [8] shares this target. Nature of the experiment: radioligand displacement, rat brain membranes. On the technique in general: Displacement assays read how much labelled ligand stays bound in the presence of the test substance.
Experiment [9] shares this target. This is another data set of the same source.
For experiment [10], the system named is rat brain membrane K channels (primarily Kv1.2). Type of experiment: binding. The following applies: for IC50: read-out: IC50 Rat Brain 125I-CTX.
In experiment [11] the target is Kv1.3 potassium channels in Jurkat T lymphocytes (Homo sapiens, UniProt P22001). Format: cell-based.
Kv1.3 potassium channels in Jurkat T lymphocytes, sequence (P22001 whole entry): as above
In experiment [12] the target is IKCa channel of activated human T-cells (human) (UniProt O15554). The experiment in a line: whole-cell patch clamp block, activated human T-cells. Background: Patch clamp records ionic current or voltage across a cell membrane.
Experiment [13] deals with rat brain membrane K channels (delayed rectifier, primarily Kv1.2) (rat) (UniProt P63142). The source holds these as a separate data set.
Experiment [14] shares this target. The experiment in a line: 125I-dendrotoxin displacement assay.
Experiment [15] concerns the target Kv1.3 potassium channel of human T lymphocytes (human, UniProt P22001). The experiment in a line: 125I-ChTX displacement, Jurkat T lymphocytes.

Read-outs that look alike come from different tables or passages of the source.

rat brain membrane K channels (delayed rectifier, primarily Kv1.2) (rat), sequence (P63142 whole entry): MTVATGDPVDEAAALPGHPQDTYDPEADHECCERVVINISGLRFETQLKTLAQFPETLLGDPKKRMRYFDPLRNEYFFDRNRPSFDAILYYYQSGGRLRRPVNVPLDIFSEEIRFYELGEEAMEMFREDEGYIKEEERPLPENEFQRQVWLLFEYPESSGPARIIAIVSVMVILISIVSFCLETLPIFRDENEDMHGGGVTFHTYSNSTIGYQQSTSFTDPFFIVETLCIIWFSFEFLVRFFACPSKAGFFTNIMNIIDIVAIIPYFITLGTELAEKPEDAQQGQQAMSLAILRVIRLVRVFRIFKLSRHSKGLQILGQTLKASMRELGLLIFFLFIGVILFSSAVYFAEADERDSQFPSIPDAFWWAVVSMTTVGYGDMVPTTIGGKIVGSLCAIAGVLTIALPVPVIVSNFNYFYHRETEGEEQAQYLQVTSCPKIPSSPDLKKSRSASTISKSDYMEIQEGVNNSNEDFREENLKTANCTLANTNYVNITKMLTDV
Kv1.3, sequence (P16390 whole entry): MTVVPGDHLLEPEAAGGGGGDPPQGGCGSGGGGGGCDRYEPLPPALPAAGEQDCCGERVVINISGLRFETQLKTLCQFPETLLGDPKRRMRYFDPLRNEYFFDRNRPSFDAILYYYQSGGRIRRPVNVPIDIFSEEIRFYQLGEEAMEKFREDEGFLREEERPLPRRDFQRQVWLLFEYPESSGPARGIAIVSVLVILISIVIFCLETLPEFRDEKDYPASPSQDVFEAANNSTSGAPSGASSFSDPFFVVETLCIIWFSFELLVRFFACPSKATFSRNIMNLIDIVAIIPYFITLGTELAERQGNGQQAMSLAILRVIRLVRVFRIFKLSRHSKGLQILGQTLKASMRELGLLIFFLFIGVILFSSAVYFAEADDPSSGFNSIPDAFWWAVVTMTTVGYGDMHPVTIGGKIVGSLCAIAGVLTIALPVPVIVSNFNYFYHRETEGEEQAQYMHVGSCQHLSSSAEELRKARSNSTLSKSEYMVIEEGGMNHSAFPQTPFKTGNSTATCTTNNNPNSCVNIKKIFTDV

In the case of `CC[C@H](C)[C@@H]1NC(=O)[C@@H](NC(=O)[C@H](CO)NC(=O)[C@@H](N)CCCNC(=N)N)CSSC[C@@H](C(=O)O)NC(=O)[C@H]([C@@H](C)O)NC(=O)CNC(=O)[C@@H]2CSSC[C@@H]3NC(=O)[C@H](CCC(N)=O)NC(=O)[C@H](Cc4ccccc4)NC(=O)[C@H](C)NC(=O)[C@H]([C@@H](C)O)NC(=O)[C@H](CSSC[C@H](NC(=O)[C@H](Cc4ccccc4)NC(=O)[C@H](CO)NC(=O)[C@H](CC(C)C)NC(=O)[C@H](CCCNC(=N)N)NC(=O)[C@H](Cc4ccc(O)cc4)NC(=O)[C@H](CCCCNC(N)=O)NC(=O)[C@H](CCSC)NC(=O)[C@H](CO)NC(=O)[C@H](Cc4c[nH]cn4)NC(=O)[C@H](CCCCN)NC3=O)C(=O)N[C@@H](CCCNC(=N)N)C(=O)N[C@@H](CCCCN)C(=O)N[C@@H]([C@@H](C)O)C(=O)N2)NC(=O)[C@H](CCCNC(=N)N)NC(=O)[C@H](CO)NC(=O)[C@H](CCCCN)NC(=O)[C@@H]2CCCN2C(=O)[C@H]([C@@H](C)CC)NC(=O)[C@H]([C@@H](C)O)NC(=O)[C@H](CC(=O)O)NC1=O` [K22Homocit], on Kv1.3 (read-out: Kd), the Kd (usually the equilibrium constant for the complex coming apart) was over 100 nM.

Turning to ShK Y23Nph (peptide), the IC50 ratio (analog IC50/ShK IC50) in [1] is 1. The Kd in experiment [2] came out at 0.2 nM. For the same molecule, in [3], the IC50 ratio (analog IC50/ShK IC50) stood at 1 and the free energy difference of binding was determined as 0 kcal/mol.

Take ShK F27Cha (peptide): in experiment [1], the IC50 ratio (analog IC50/ShK IC50) turned out to be 0.7 and the free energy difference of binding is -0.21 kcal/mol. Moreover, in [4], the IC50 ratio (analog IC50/ShK IC50) was determined as 0.7 and the free energy difference of binding is -0.21 kcal/mol.

In the case of ShK K9E (analog 104) (peptide), in [5], the IC50 ratio (analog IC50/ShK IC50) amounted to 3.57.

For the molecule ShK K22Orn (peptide), the IC50 ratio (analog IC50/ShK IC50) in experiment [1] worked out at 1.7; in [7], 1.2. Also, the dissociation constant (Kd) in experiment [2] was 2 nM. In [6], the equipotent molar ratio (analog IC50/ShK IC50) for block of Kv1.3 current stood at 1.2. The molecule also came in with a free energy difference of binding in [7] of 0.11 kcal/mol. Moreover, the reduction of apparent affinity in experiment [8] came to 120%. Also, in [9], the IC50 – broadly, the concentration that gives 50% inhibition – amounted to 20 nM.

Regarding ShK R1S (peptide), in experiment [1], the IC50 ratio (analog IC50/ShK IC50) stood at 1.5. Further, the equipotent molar ratio (analog IC50/ShK IC50) for block of Kv1.3 current in experiment [6] amounted to 0.92. Further, in experiment [9], the IC50 was determined as 16 nM.

With ShK Y23Bpa (peptide), in [3], the IC50 ratio (analog IC50/ShK IC50) came to 3.76 and the free energy difference of binding stood at 0.78 kcal/mol.

For ShK M21Nle (peptide), the IC50 ratio (analog IC50/ShK IC50) in experiment [1] turned out to be 0.8. Besides, in [6], the equipotent molar ratio (analog IC50/ShK IC50) for block of Kv1.3 current was found to be 0.8. For the same molecule, the IC50 in experiment [9] is 9 nM.

On to ShK Y23Cha (peptide), for which, in experiment [1], the IC50 ratio (analog IC50/ShK IC50) is 8.8 and the free energy difference of binding was found to be 1.27 kcal/mol. In [3], the IC50 ratio (analog IC50/ShK IC50) is 8.8 and the free energy difference of binding amounted to 1.27 kcal/mol.

With ShK Y23Apa (peptide), the IC50 ratio (analog IC50/ShK IC50) in experiment [1] is 0.8. The Kd in experiment [2] is 0.12 nM. In experiment [3], the IC50 ratio (analog IC50/ShK IC50) was 0.8 and the free energy difference of binding was -0.13 kcal/mol.

As to `CC[C@H](C)[C@@H]1NC(=O)[C@@H](NC(=O)[C@H](CO)NC(=O)[C@@H](N)CCCNC(=N)N)CSSC[C@@H](C(=O)O)NC(=O)[C@H]([C@@H](C)O)NC(=O)CNC(=O)[C@@H]2CSSC[C@@H]3NC(=O)[C@H](CCC(N)=O)NC(=O)[C@H](Cc4ccccc4)NC(=O)[C@H](C)NC(=O)[C@H]([C@@H](C)O)NC(=O)[C@H](CSSC[C@H](NC(=O)[C@H](Cc4ccccc4)NC(=O)[C@H](CO)NC(=O)[C@H](CC(C)C)NC(=O)[C@H](CCCNC(=N)N)NC(=O)[C@H](Cc4ccc(O)cc4)NC(=O)[C@H](CCCCN)NC(=O)[C@H](CCSC)NC(=O)[C@H](CO)NC(=O)[C@H](Cc4c[nH]cn4)NC(=O)[C@H](CCCCN)NC3=O)C(=O)N[C@@H](CCCNC(=N)N)C(=O)N[C@@H](CCCCN)C(=O)N[C@@H]([C@@H](C)O)C(=O)N2)NC(=O)[C@H](CCCNC(=N)N)NC(=O)[C@H](CO)NC(=O)[C@H](CCC(N)=O)NC(=O)[C@@H]2CCCN2C(=O)[C@H]([C@@H](C)CC)NC(=O)[C@H]([C@@H](C)O)NC(=O)[C@H](CC(=O)O)NC1=O` [K9Q], in experiment [10], the “Equipotent Molar Ration (Analog IC50 /ShK IC50) Rat brain” value is given as 0.6 and the half-inhibitory concentration (IC50) stood at 11 nM. Moreover, in experiment [11], the “Equipotent Molar Ration (Analog IC50 /ShK IC50) Lymphocyte” value is on record as 9.6 and the “reduction of affinity (IC50) for Kv1.3 relative to ShK toxin” value is reported as 9.6 fold.

For the molecule ShK K22Homocit (peptide), the IC50 ratio (analog IC50/ShK IC50) in experiment [1] is over 500. In experiment [2], the Kd is over 100 nM. In [7], the IC50 ratio (analog IC50/ShK IC50) is over 500 and the free energy difference of binding is over 3.65 kcal/mol.

Regarding “ShK-K22DAP (peptide; other documents disagree on this pair)”, the Kd in [12] is over 100 nM.

As for ShK K22Nle (peptide), the IC50 ratio (analog IC50/ShK IC50) in experiment [1] was over 250. In [6], the equipotent molar ratio (analog IC50/ShK IC50) for block of Kv1.3 current is over 23. Also, in [7], the IC50 ratio (analog IC50/ShK IC50) was over 250 and the free energy difference of binding was over 3.23 kcal/mol.

For the molecule `CCCC[C@@H]1NC(=O)[C@H](CO)NC(=O)[C@H](Cc2c[nH]cn2)NC(=O)[C@H](CCCCN)NC(=O)[C@@H]2CSSC[C@@H]3NC(=O)[C@H]([C@@H](C)O)NC(=O)[C@H](CCCCN)NC(=O)[C@H](CCCNC(=N)N)NC(=O)[C@H](CSSC[C@H](NC(=O)[C@H](CCCNC(=N)N)NC(=O)[C@H](CO)NC(=O)[C@H](CCCCN)NC(=O)[C@@H]4CCCN4C(=O)[C@H]([C@@H](C)CC)NC(=O)[C@H]([C@@H](C)O)NC(=O)[C@H](CC(=O)O)NC(=O)[C@H]([C@@H](C)CC)NC(=O)[C@@H](NC(=O)[C@H](CO)NC(=O)[C@@H](N)CCCNC(=N)N)CSSC[C@@H](C(=O)O)NC(=O)[C@H]([C@@H](C)O)NC(=O)CNC3=O)C(=O)N[C@@H]([C@@H](C)O)C(=O)N[C@@H](C)C(=O)N[C@@H](Cc3ccccc3)C(=O)N[C@@H](CCC(N)=O)C(=O)N2)NC(=O)[C@H](Cc2ccccc2)NC(=O)[C@H](CO)NC(=O)[C@H](CC(C)C)NC(=O)[C@H](CCCNC(=N)N)NC(=O)[C@H](Cc2ccc(O)cc2)NC(=O)[C@H](CCCCN)NC1=O` [M21Nle], in experiment [10], the “Equipotent Molar Ration (Analog IC50 /ShK IC50) Rat brain” value was 0.8, the “effect on binding to either K channel subtype” value is “no significant affect on binding” and the IC50 turned out to be 9 nM. In experiment [11], the “Equipotent Molar Ration (Analog IC50 /ShK IC50) Lymphocyte” value came out at 0.80.

For the molecule ShK A15 + A25 (peptide), in experiment [1], the IC50 ratio (analog IC50/ShK IC50) came to 2.1 and the free energy difference of binding amounted to 0.43 kcal/mol. Also, in [13], the IC50 ratio (analog IC50/ShK IC50) was 2.1 and the free energy difference of binding turned out to be 0.43 kcal/mol.

For the molecule ShK desR1-S2 (peptide), the IC50 ratio (analog IC50/ShK IC50) in experiment [1] turned out to be 2.5; in experiment [4], 2.54. For the same molecule, the free energy difference of binding in experiment [1] and in [4] was 0.54 kcal/mol each time.

ShK K22 citrulline (peptide): the IC50 in experiment [9] was found to be 2000 nM.

As for `CC[C@H](C)[C@@H]1NC(=O)[C@@H](NC(=O)[C@H](CO)NC(=O)[C@@H](N)CCCNC(=N)N)CSSC[C@@H](C(=O)O)NC(=O)[C@H]([C@@H](C)O)NC(=O)CNC(=O)[C@@H]2CSSC[C@@H]3NC(=O)[C@H](CCC(N)=O)NC(=O)[C@H](Cc4ccccc4)NC(=O)[C@H](C)NC(=O)[C@H]([C@@H](C)O)NC(=O)[C@H](CSSC[C@H](NC(=O)[C@H](Cc4ccccc4)NC(=O)[C@H](CO)NC(=O)[C@H](CC(C)C)NC(=O)[C@H](CCCNC(=N)N)NC(=O)[C@H](Cc4ccc(O)cc4)NC(=O)[C@H](CCCN)NC(=O)[C@H](CCSC)NC(=O)[C@H](CO)NC(=O)[C@H](Cc4c[nH]cn4)NC(=O)[C@H](CCCCN)NC3=O)C(=O)N[C@@H](CCCNC(=N)N)C(=O)N[C@@H](CCCCN)C(=O)N[C@@H]([C@@H](C)O)C(=O)N2)NC(=O)[C@H](CCCNC(=N)N)NC(=O)[C@H](CO)NC(=O)[C@H](CCCCN)NC(=O)[C@@H]2CCCN2C(=O)[C@H]([C@@H](C)CC)NC(=O)[C@H]([C@@H](C)O)NC(=O)[C@H](CC(=O)O)NC1=O` [K22Orn], in experiment [10], the “Equipotent Molar Ration (Analog IC50 /ShK IC50) Rat brain” value was determined as 1.7; the “IC50 Ratio” value was found to be 1.2; the “binding affinity for rat brain K channels relative to wild-type ShK toxin, in words” value is listed as “little effect”; the “reduction of apparent affinity” value was “about 120%”. In [10], the ΔF stood at 0.11 and the concentration for half-maximal inhibition (IC50) turned out to be 20 nM. In addition, in [11], the “Equipotent Molar Ration (Analog IC50 /ShK IC50) Lymphocyte” value is 1.2 and the “reduction of affinity (IC50) for Kv1.3 relative to ShK toxin” value is listed as “only slightly reduced (two times)”. In addition, the Kd at Kv1.3 was determined as 2 ± 1 nM.

Consider ShK K9Q (peptide), for which the IC50 ratio (analog IC50/ShK IC50) in [1] came out at 0.6. Besides, in [6], the equipotent molar ratio (analog IC50/ShK IC50) for block of Kv1.3 current worked out at 9.6. Besides, the IC50 in experiment [9] was 11 nM.

With KSRCTAFQCKHSXKYRLSFCRKTC (norleucine at position 21; Cys12 and Cys28 S-acetamidomethyl (Acm)) [monocyclic truncated ShK analog of Example 14 (Cys17-Cys32)], the IC50 ratio (analog IC50/ShK IC50) in experiment [14] is over 3000.

On to SSCIDTIPKSRCTAFQCKHSMKYRLSFCRKTCGTC [ShK R1S], for which, in experiment [15], the half-inhibitory concentration (IC50) is 0.05 nM.

RSCIDTIPQSRCTAFQCKHSMKYRLSFCRKTCGTC [ShK K9Q] displayed an IC50 in experiment [15] of 0.31 nM.

As to KSRCTAFQCKHSXKYRLSFCRKTC (norleucine at position 21) [bicyclic truncated ShK analog of Example 14 (Cys12-Cys28, Cys17-Cys32)], the IC50 ratio (analog IC50/ShK IC50) in experiment [14] was determined as 1360.
